{
  "source": "paper PMC2773002",
  "about": "“Differential Role of Human Choline Kinase α and β Enzymes in Lipid Metabolism: Implications in Cancer Onset and Treatment” (PLoS ONE, 2009)",
  "key": {"[1]": {"substrate": "NCCO", "test": "Michaelis-Menten kinetics (Km), radiolabelled substrate, extracts of E. coli expressing the recombinant enzyme", "format": "biochemical, Homo sapiens", "conditions": "ATP, MgCl2"}, "[2]": {"substrate": "C[N+](C)(C)CCO", "test": "Michaelis-Menten kinetics (Km), radiolabelled substrate, extracts of E. coli expressing the recombinant enzyme", "format": "biochemical, Homo sapiens", "conditions": "ATP, MgCl2"}},
  "data": [
    {"protein": "ChoKβ (choline kinase beta, ChoKβ1) (Homo sapiens) (protein, human ChoKβ1 expressed in E. coli DH5α (extracts)) AAEATAVAGSGAVGGCLAKDGLQQSKCPDTTPKRRRASSLSRDAERRAYQWCREYLGGAWRRVQPEELRVYPVSGGLSNLLFRCSLPDHLPSVGEEPREVLLRLYGAILQGVDSLVLESVMFAILAERSLGPQLYGVFPEGRLEQYIPSRPLKTQELREPVLSAAIATKMAQFHGMEMPFTKEPHWLFGTMERYLKQIQDLPPTGLPEMNLLEMYSLKDEMGNLRKLLESTPSPVVFCHNDIQEGNILLLSEPENADSLMLVDFEYSSYNYRGFDIGNHFCEWVYDYTHEEWPFYKARPTDYPTQEQQLHFIRHYLAEAKKGETLSQEEQRKLEEDLLVEVSRYALASHFFWGLWSILQASMSTIEFGYLDYAQSRFQFYFQQKGQLTSVHSSS", "values": [
      {"measurement": "Km", "setting": "[1]", "value": 2010, "unit": "µM"},
      {"measurement": "Km", "setting": "[2]", "value": 570, "unit": "µM"}
    ]}
  ]
}
